From article PMC4817942

Columns and labels:
[1] = target: neonatal Fc receptor (FcRn) (UniProt P55899); assay: SPR; Biacore analysis; FcRn data collected at pH6; who was immobilised not told
[2] = target: FcγRI (CD64) (UniProt P12314); assay: SPR; Biacore analysis; who was immobilised, buffer and temperature not given for this experiment
[3] = target: FcγRIIB (CD32B) (UniProt P31994); assay: as above
[4] = target: FcγRIIA (CD32A) (UniProt P12318); assay: as above
[5] = target: FcγRIII (CD16A) (UniProt P08637); assay: as above
[6] = target: HER2 on the cell surface (human (endogenous in SK-BR-3, HCC1954 and BT474)) (UniProt P04626)
[7] = target: human HER2 ECD-Fc recombinant (human) (UniProt P04626); assay: SPR; BIAcore 3000; human HER2 ECD-Fc amine-coupled on a CM5 chip to 200 RU; analyte FS102 (50 µg/ml) at 20 µl/minute; HBS-P buffer; apparent KD
[8] = target: HER2 on the cell surface (human (endogenous in SK-BR-3, HCC1954 and BT474)) (UniProt P04626); assay: flow cytometry on cells; cells with 0.1-2,000 nmol/l Fcab for 1 hour at 4 °C in DPBS with 2% FBS; detected by anti-human IgG-phycoerythrin

FcγRIIB (CD32B), sequence (P31994 43-310): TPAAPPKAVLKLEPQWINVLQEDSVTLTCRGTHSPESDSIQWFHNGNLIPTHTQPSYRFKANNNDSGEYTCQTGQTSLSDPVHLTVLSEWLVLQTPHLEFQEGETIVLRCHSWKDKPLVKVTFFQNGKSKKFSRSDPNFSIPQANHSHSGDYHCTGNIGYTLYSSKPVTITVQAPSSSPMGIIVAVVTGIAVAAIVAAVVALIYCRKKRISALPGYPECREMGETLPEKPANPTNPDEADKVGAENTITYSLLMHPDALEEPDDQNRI
FcγRIII (CD16A), sequence (P08637 17-254): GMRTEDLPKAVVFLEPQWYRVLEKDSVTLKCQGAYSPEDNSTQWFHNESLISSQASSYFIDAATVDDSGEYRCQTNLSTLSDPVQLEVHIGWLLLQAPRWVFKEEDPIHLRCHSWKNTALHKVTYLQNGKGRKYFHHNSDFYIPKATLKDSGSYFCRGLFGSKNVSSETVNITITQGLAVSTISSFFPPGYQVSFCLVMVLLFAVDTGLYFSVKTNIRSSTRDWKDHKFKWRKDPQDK
FcγRIIA (CD32A), sequence (P12318 34-317): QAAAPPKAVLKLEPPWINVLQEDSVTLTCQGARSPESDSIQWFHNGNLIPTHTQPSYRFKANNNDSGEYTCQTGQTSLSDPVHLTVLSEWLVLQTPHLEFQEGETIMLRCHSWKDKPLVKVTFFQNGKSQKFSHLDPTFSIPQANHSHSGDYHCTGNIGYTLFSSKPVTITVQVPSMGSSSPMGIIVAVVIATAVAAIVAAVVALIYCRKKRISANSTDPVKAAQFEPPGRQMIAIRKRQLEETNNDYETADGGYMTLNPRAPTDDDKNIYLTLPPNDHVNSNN
FcγRI (CD64), sequence (P12314 16-374): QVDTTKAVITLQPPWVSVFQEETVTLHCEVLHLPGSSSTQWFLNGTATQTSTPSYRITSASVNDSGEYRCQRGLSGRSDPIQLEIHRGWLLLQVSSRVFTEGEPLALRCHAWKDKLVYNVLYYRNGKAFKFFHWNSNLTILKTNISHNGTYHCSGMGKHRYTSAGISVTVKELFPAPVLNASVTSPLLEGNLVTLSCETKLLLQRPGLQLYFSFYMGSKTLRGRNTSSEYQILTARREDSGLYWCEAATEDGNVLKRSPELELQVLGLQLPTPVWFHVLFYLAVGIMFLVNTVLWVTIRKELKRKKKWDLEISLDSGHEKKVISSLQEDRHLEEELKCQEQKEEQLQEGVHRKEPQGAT
neonatal Fc receptor (FcRn), sequence (P55899 whole entry, looked up, tested part not stated): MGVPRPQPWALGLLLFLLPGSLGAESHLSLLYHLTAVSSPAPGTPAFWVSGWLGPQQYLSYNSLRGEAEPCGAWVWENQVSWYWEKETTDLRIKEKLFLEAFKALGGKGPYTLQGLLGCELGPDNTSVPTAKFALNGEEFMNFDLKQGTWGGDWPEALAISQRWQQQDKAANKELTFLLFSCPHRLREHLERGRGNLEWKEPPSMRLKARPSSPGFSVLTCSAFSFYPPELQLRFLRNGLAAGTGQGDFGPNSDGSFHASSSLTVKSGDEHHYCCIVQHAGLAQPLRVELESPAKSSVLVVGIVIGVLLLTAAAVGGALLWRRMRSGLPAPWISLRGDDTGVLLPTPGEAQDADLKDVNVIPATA

Substance	Kd [1]	Kd [2]	Kd [3]	Kd [4]	Kd [5]	reduction of HCC1954 cell number after 5 days of incubation (proliferation assay) [6]	reduction of SK-BR-3 cell number after 5 days of incubation (proliferation assay) [6]	Kd [7]	EC50 [8]
IgG1 (antibody)	20 to 60 nM	15 nM	5 µM	250 nM	660 nM				
WT Fcab (unmodified constant region of human IgG1) (domain or fragment)		27 nM	6.2 µM	1000 nM	500 nM				
FS102 (designed binder)	45 nM	19 nM	6.4 µM	472 nM	560 nM	47%	39%	0.8 nM	3.3 nM
Trastuzumab (antibody)		40 nM							
